Publication PMC11592472

What was measured:
[1] = molecular target: equine LH/CGR trileucine mutant eLH/CGR-AAA (equine)
[2] = molecular target: equine LH/CGR trileucine mutant eLH/CGR-ALL (equine)
[3] = molecular target: equine LH/CGR trileucine mutant eLH/CGR-LAL (equine)
[4] = molecular target: equine LH/CGR trileucine mutant eLH/CGR-LLA (equine)
[5] = molecular target: equine lutropin/choriogonadotropin receptor, wild type (eLH/CGR-wt) (equine)

Substance “recombinant equine chorionic gonadotropin (rec-eCG) (from UniProt P01220 25-120; P08751 21-169) (ligand)” has an EC50 of the cAMP response (HTRF) of transfected CHO-K1 cells stimulated with rec-eCG for 30 min at room temperature [1] of 0.0352 µg/mL, an EC50 of the cAMP response (HTRF) of transfected CHO-K1 cells stimulated with rec-eCG for 30 min at room temperature [2] of 0.0046 µg/mL and an EC50 of the cAMP response (HTRF) of transfected CHO-K1 cells stimulated with rec-eCG for 30 min at room temperature [3] of 0.0143 µg/mL. The EC50 of the cAMP response (HTRF) of transfected CHO-K1 cells stimulated with rec-eCG for 30 min at room temperature [4] was 0.0197 µg/mL and the EC50 of the cAMP response (HTRF) of transfected CHO-K1 cells stimulated with rec-eCG for 30 min at room temperature [5] was 0.0185 µg/mL.
